# Source: the Human Domainome abundance scans (Beltran et al. 2025)
# ± gives the uncertainty stated by the source.
# B1: Cold shock protein CspB, residues 1 to 66; numbered along this chain, P41016 (parent)
# chain: MQRGKVKWFNNEKGYGFIEVEGGSDVFVHFTAIQGEGFKTLEEGQEVSFEIVQGNRGPQAANVVKL
# Variants of: B1
# Assay: abundance fitness (aPCA) (normalised: wild type 0, dead -1); higher = more abundant; growth selection in yeast, the domain comes from the species named
# Conditions: Bacillus caldolyticus
row,Variant,abundance fitness
1,V20R,-0.006 ± 0.053
2,V20Q,0.046 ± 0.057
3,V20S,-0.011 ± 0.035
4,V20T,0.008 ± 0.044
5,A32K,-0.044 ± 0.049
6,A32P,-0.507 ± 0.043
7,A32F,-0.129 ± 0.058
8,A32G,-0.02 ± 0.037
9,A32S,-0.032 ± 0.034
10,A32N,-0.045 ± 0.058
11,A32I,-0.666 ± 0.068
12,A32Y,-0.263 ± 0.063
13,A32W,-0.351 ± 0.05
14,A32M,-0.103 ± 0.048
15,A32H,-0.099 ± 0.061
16,A32C,-0.083 ± 0.048
17,A32T,-0.105 ± 0.039
18,A32R,-0.084 ± 0.036
19,A32D,-0.129 ± 0.055
20,A32L,-0.472 ± 0.025
21,A32Q,0.023 ± 0.055
22,V28M,-0.153 ± 0.055
23,V28S,-0.355 ± 0.03
24,V28Y,-0.27 ± 0.061

row,Variant,abundance fitness
1,V28P,-0.693 ± 0.088
2,V28H,-1.04 ± 0.21
3,V28W,-0.675 ± 0.036
4,V28D,-0.912 ± 0.14
5,V28R,-0.993 ± 0.05
6,V28I,-0.048 ± 0.05
7,V28T,-0.05 ± 0.047
8,V28G,-0.638 ± 0.041
9,V28C,0.017 ± 0.048
10,V28Q,-0.901 ± 0.084
11,V28A,-0.1 ± 0.045
12,V28F,-0.062 ± 0.058
13,V28L,-0.107 ± 0.029
14,V28E,-1.1 ± 0.15
15,V28N,-0.999 ± 0.34
16,V26P,-0.566 ± 0.038
17,V26R,-0.248 ± 0.032
18,V26F,-0.11 ± 0.054
19,V26Q,-0.173 ± 0.04
20,V26E,-0.372 ± 0.043
21,V26S,-0.195 ± 0.029
22,V26M,-0.056 ± 0.043
23,V26I,-0.017 ± 0.045
24,V26G,-0.573 ± 0.036

row,Variant,abundance fitness
1,V26Y,-0.074 ± 0.054
2,V26K,-0.251 ± 0.059
3,V26C,-0.053 ± 0.048
4,V26H,-0.132 ± 0.075
5,V26D,-0.529 ± 0.06
6,V26W,-0.23 ± 0.035
7,E21I,0.034 ± 0.069
8,E21Y,-0.022 ± 0.042
9,E21K,-0.017 ± 0.066
10,E21V,0.013 ± 0.035
11,E21D,-0.028 ± 0.076
12,E21A,0.017 ± 0.048
13,E21F,-0.052 ± 0.054
14,E21T,0.014 ± 0.055
15,E21G,0.02 ± 0.047
16,E21S,-0.009 ± 0.036
17,E21H,0.027 ± 0.052
18,E21M,-0.051 ± 0.069
19,E21Q,-0.007 ± 0.066
20,E21W,-0.033 ± 0.044
21,D25G,-0.257 ± 0.047
22,D25F,-0.251 ± 0.054
23,D25M,-0.153 ± 0.043
24,D25Y,-0.231 ± 0.06

row,Variant,abundance fitness
1,D25E,-0.082 ± 0.043
2,D25N,-0.047 ± 0.08
3,D25Q,-0.073 ± 0.054
4,D25H,-0.102 ± 0.064
5,D25W,-0.26 ± 0.036
6,D25S,-0.053 ± 0.032
7,D25T,-0.073 ± 0.041
8,D25P,-0.093 ± 0.036
9,D25V,-0.141 ± 0.035
10,D25I,-0.214 ± 0.063
11,D25A,-0.113 ± 0.04
12,D25K,-0.093 ± 0.046
13,F38H,-0.132 ± 0.067
14,F38D,-0.12 ± 0.054
15,F38N,0.004 ± 0.14
16,F38L,-0.086 ± 0.027
17,F38V,-0.044 ± 0.03
18,F38G,-0.048 ± 0.032
19,F38T,-0.119 ± 0.064
20,F38M,-0.075 ± 0.046
21,F38I,-0.041 ± 0.067
22,F38C,-0.103 ± 0.058
23,F38Q,-0.005 ± 0.064
24,F38R,-0.041 ± 0.031

row,Variant,abundance fitness
1,F38S,-0.057 ± 0.037
2,F38K,-0.049 ± 0.051
3,F38W,0.024 ± 0.046
4,F38Y,-0.009 ± 0.057
5,F38E,-0.078 ± 0.043
6,S24K,0.015 ± 0.049
7,S24R,0.01 ± 0.029
8,S24N,0.004 ± 0.081
9,S24T,0.003 ± 0.047
10,S24I,-0.033 ± 0.081
11,S24A,-0.011 ± 0.055
12,S24D,-0.002 ± 0.071
13,S24W,-0.031 ± 0.039
14,S24L,-0.002 ± 0.033
15,S24P,0.012 ± 0.057
16,S24Y,-0.016 ± 0.084
17,S24M,-0.019 ± 0.055
18,S24V,-0.016 ± 0.039
19,S24C,-0.029 ± 0.041
20,S24F,-0.025 ± 0.058
21,S24H,0.007 ± 0.072
22,S24Q,-0.004 ± 0.055
23,F27P,-0.161 ± 0.042
24,F27S,-0.212 ± 0.03

row,Variant,abundance fitness
1,F27C,-0.243 ± 0.047
2,F27A,-0.206 ± 0.037
3,F27Q,-0.208 ± 0.04
4,F27H,-0.075 ± 0.077
5,F27Y,0.003 ± 0.054
6,F27W,-0.102 ± 0.035
7,F27I,-0.208 ± 0.056
8,F27E,-0.183 ± 0.041
9,F27M,-0.169 ± 0.049
10,F27N,-0.335 ± 0.1
11,F27G,-0.229 ± 0.031
12,F27R,-0.176 ± 0.028
13,F27L,-0.187 ± 0.029
14,Q34H,-0.123 ± 0.15
15,Q34I,-0.169 ± 0.087
16,Q34Y,-0.073 ± 0.082
17,Q34T,-0.008 ± 0.051
18,Q34K,0.01 ± 0.053
19,Q34S,-0.003 ± 0.047
20,Q34N,0.053 ± 0.11
21,Q34F,0.052 ± 0.14
22,Q34R,0.001 ± 0.034
23,Q34P,-0.062 ± 0.04
24,Q34D,0.079 ± 0.11

row,Variant,abundance fitness
1,Q34W,-0.049 ± 0.043
2,Q34M,0.006 ± 0.042
3,Q34G,-0.005 ± 0.041
4,Q34C,-0.071 ± 0.066
5,Q34V,0.048 ± 0.045
6,Q34L,-0.02 ± 0.031
7,G35S,-0.035 ± 0.039
8,G35M,0.002 ± 0.035
9,G35E,-0.001 ± 0.038
10,G35P,-0.172 ± 0.045
11,G35Q,0.001 ± 0.045
12,G35W,-0.134 ± 0.044
13,G35F,-0.067 ± 0.059
14,G35N,-0.06 ± 0.11
15,G35T,-0.084 ± 0.054
16,G35V,-0.033 ± 0.037
17,G35L,-0.127 ± 0.025
18,G35D,-0.004 ± 0.076
19,G35K,-0.112 ± 0.056
20,G35Y,-0.068 ± 0.074
21,G35I,-0.108 ± 0.061
22,G35C,0.02 ± 0.069
23,G35R,-0.111 ± 0.033
